# According to the DeepSol protein solubility set:
# Assay: soluble on expression in E. coli; label from the status in PepcDB or PDB records
row,Sequence,soluble on expression in E. coli
1,MAHHHHHHMNNSLLGSLFAKRTKEPRDLDAAEMPQLRTGRSRASSESSTTSARSQRDGKKKKQQRRHPGKRRDAQDSDSGDEGVRQHSTPLTSPAPHPRASSVGSEFSDIEENPRPRNQRRSSGKVLRSSGTVAGAEKAKADERPPMAHSTPEVLPGADNLATNPLGEAGAGGEGAAGGQRHLPPMSQSAPMTSGRGSAAETVAVLRKEGSIEASQQQASTLTAGQLCGVAANSTVSFSGDDAAVLGASLNNTCSAATTISHHPTQPLAPAPGSSSGSPEDHKGSPPRACSSAEEGKKCDNRDSNTRRAVSGKDGEEMTHVDTEKQQPHDRSGDTPDRDVGASGKAWEGQRDATSAVEKDTHPLLDTASLRHTLDSFGSRPSSKLRRRSLGIGGSSKCVPAMLDRSRDGDGTSMTPSDGDEILKGLSFFNAASGEFVLTNHDIHSLEAFLFGTRALVVHINDLQKALLEMQHATDLARLL,not soluble
2,MGSDKIHHHHHHMACGEFSGDDAAMKQTSFATAEYAGKKRQTRRERFLAEMNVVVPWARLEALIEPHYPKSGKVGRPPIGVPRMLRMYFLQQWYTLADEALEDALYDSQAMREFIGIDLGRENVPDATTLLKFRRLLEQHDLTSAILAEVNAHLTERGLLMRQGTVVDATIIAAPSSTKNEDGKRDPEMHQTKKGNQWHFGMKMHSGVDAESGLIHSVVCTAANEADVAHAHELLHGQESQVHGDSGYTGIQRRDEITTAQEEGRLRQDMDWRIAMKRGQLKAMPEGPAKAMHEWFERRKAQVRAIVEHPFHVIKNLFGYRKVSYRGISKNEARAKAHAALANLYIARRRLLAQGLSASAA,not soluble
3,SLEIRRSDAPRLVDLVRRAQASVNRLATEREALTTRIDSVHGRSVDTALAAMQRRSAKLAGVAAMNPVHGPGLVVTLQDAQRDANGRFPRDASPDDLVVHQQDIEAVLNALWNAGAEAIQMQDQRIIAMSIARCVGNTLLLNGRTYSPPYTIAAIGDAAAMQAALAAAPLVTLYKQYVVRFGLGYCEEVHPDLQIVGYADPVRMHFAQPAGPLDY,soluble
4,SVGTTSVVKNSHEEVVQTLANSLFPAQFMNGNIHIPVAVQAVAGTYQNTAQTVHIWDPQQQPQQQTPQEQTPPPQQQQQQLQVTCSAQTVQVAEVEPQSQPQPSPELLLPNSLKPEEGLEVWKNWAQTKNAELEKDAQNRLAPIGRRQLLRFQEDLISSAVAELNYGLCLMTREARNGEGEPYDPDVLYYIFLCIQKYLFENGRVDDIFSDLYYVRFTEWLHEVLKDVQPRVTPLGYVLPSHVTEEMLWECKQLGAHSPSTLLTTLMFFNTKYFLLKTVDQHMKLAFSKVLRQTKKNPSNPKDKSTSIRYLKALGIHQTGQKVTDDMYAEQTENPENPLRCPIKLYDFYLFKCPQSVKGRNDTFYLTPEPVVAPNSPIWYSVQPISREQMGQMLTRILVIREIQEAIAVANASTMH,soluble
5,MAGDPMTYRDFIGRLKENGKLVEIQQPVSPIFEASRIAKKTKGPVLFHNVSGSKVIMNLLGSRDELSSMLGVPKEEIIKKLSEVSPEGEVRLVPGSPTLEVIESEVDLTKLPILTHFEKDGAPYITAGIVVSEYEGVMNASIHRLMLVGKDKLAARLVPPRHTYLLHKKAAEKGETLPVAIVLGCDPTIIYATSTRVPAGKEFEYAAALRGTPVEVFECSNGIKVPHSEIILEGYIDTKERVDEGPFVDITGTYDMVRKEPVIHITRIIHRKDPIYHGILPAGPEHLLMMGVPYEPRIYRAVGEVTTVKNVVLTEGGCCYLHAVVQIEKQTEGDAKNAIMAAFAAHTSLKHVVVVDEDINIFDPNDVEFAIATRVKGDMDILTITNVRGSSLDPRGASDGTTTKVGIDATKVLIEKENFERAIIPEELEHHHHHH,not soluble
6,MSLVIVAIGCTFAAIPAYRIFCEQTSFGGLTQVAKDFDKIANMKKCEDRLIRVQFNSDVPSSMRWEFKPQQHEIYVHPGETALAFYTARNPTDKPIIGISSYNLTPFQAAYYFNKIQCFCFEEQILNPGEQVDLPVFFYIDPDYVNDPALEYLDSILLSYTFFEAKSGLKLPDPFDPKNRPSIAPSPDKVPEATK,not soluble
7,GSWDWNLITGEVCWSDELYHIFGRSPQESGATYDEFLSYVHPDDRDRVDNALKKGLNGESVAGNYRIILGDGEERIVRTEAEVVFDEK,not soluble
